One data set relates to Rabbit myosin. In words: Gelation, test tube inversion method. The following applies: BTGase 0.02 U/mg protein, 55° C., 1 h, MTGase 0.1 U/mg, 37° C. Set-up: key: .smallcircle.: gelled; Δ: weakly gelled; x: remained as solution. The data set is classed as biochemical. The procedure:
2) Rabbit myosin was prepared as follows for use as a substrate for BTGase.
The concentration of protein was 1.5%. BTGase was added to the myosin under the same conditions as under 1) above to examine gelation ability.
For purposes of comparison, the results of gelation ability test with MTGase are also shown. The amount of MTGase added was 0.1 U per 1 mg of substrate protein.

Data set [1] can be described thus: Sausage: rheometer and organoleptic evaluation. Conditions: 1 unit per 1 g of dry pork, 55° C. 2 h, then 80° C. 30 min. The method, then: Physical properties were measured with a rheometer (manufactured by Yamaden Co., Ltd.) and organoleptic evaluation (n=10) was performed. The amount of BTGase added was 1 unit per 1 g of dry pork. The enzyme reaction was carried out at 55° C. for 2 hours. After completion of the reaction, heating was performed at 80° C. for 30 minutes to make a product. As a control, BTGase-free product was used.

Data set [2] can be described thus: Measurement of BTGase activity (hydroxamate method). The data set is classed as biochemical. Conditions: freeze dried product prepared in Example 1. The method, then:
Measurement of the activity of BTGase is carried out by performing a reaction using benzyloxycarbonyl-L-glutaminyl glycine and hydroxylamine as substrates in the absence of Ca^2+, forming an iron complex with the resulting hydroxamic acid in the presence of trichloroacetic acid, measuring absorption at 525 nm and determining the amount of hydroxamic acid by a calibration curve to calculate the activity. The BTGase activity is measured by the method described below, unless otherwise indicated.
To 0.05 ml of an enzyme solution is added 0.5 ml of Reagent A and they are mixed with each other. After reacting at 37° C. for 30 minutes, Reagent B is added thereto to discontinue the reaction and form an Fe complex. Thereafter, absorbance is measured at 525 nm. As a control, absorbance is measured after reacting a previously thermally inactivated enzyme solution in a similar manner and a difference in absorbance between the control and the enzyme solution is measured. Separately, a calibration curve is prepared using L-glutamic acid γ-monohydroxamio acid instead of the enzyme solution, and the amount of hydroxamic acid produced is determined by the difference in absorbance described above. An enzyme activity which produces 1 μmol of hydroxamic acid per 1 minute is defined as 1 unit.

B1: BTGase: microorganism-derived transglutaminase; in Examples 4-11 the freeze dried product prepared in Example 1 (S. mobaraense, i.e. BTG-1) (protein, UniProt P81453 77-407, looked up)
Protein-glutamine …: DSDDRVTPPAEPLDRMPDPYRPSYGRAETVVNNYIRKWQQVYSHRDGRKQQMTEEQREWLSYGCVGVTWVNSGQYPTNRLAFASFDEDRFKNELKNGRPRSGETRAEFEGRVAKESFDEEKGFQRAREVASVMNRALENAHDESAYLDNLKKELANGNDALRNEDARSPFYSALRNTPSFKERNGGNHDPSRMKAVIYSKHFWSGQDRSSSADKRKYGDPDAFRPAPGTGLVDMSRDRNIPRSPTSPGEGFVNFDYGWFGAQTEADADKTVWTHGNHYHAPNGSLGAMHVYESKFRNWSEGYSDFDRGAYVITFIPKSWNTAPDKVKQGWP
As to B1, the “Gelation, Rabbit myosin 1.5%” value with Rabbit myosin is on record as “.smallcircle”. In data set [1], the “Viscosity Coefficient” value is reported as 1.92 × 10^9 dyn.sec.cm^-2. The specific activity in data set [2] was determined as 2.50 Units/mg protein.

Values taken from US5156956A, “Transgultaminase” (Ajinomoto Co., Inc., priority 1987, dated 1992).
